Experimental data: paper PMC9947222

Experiments:
[1] = test system: anti-NP mAb clone B1-8 (Abcam ab206523) (mouse); assay: FIDA; conditions: binding via NIP hapten; in solution; LNA/2'-OMe as N0; one 5' amino-C6 NIP hapten (carrier strand not stated); BLI: PBS, 0.02% Tween-20, 0.1% BSA, pH 7.4, HJ 0.2-20 nM, temperature not stated; all positive binding is through the NP/NIP hapten, not the nucleic acid
[2] = biological target: mouse IgG2a (mIgG2a) antibody (BALB/c IgG2a,κ Purified Mouse Anti-Mouse I-A[b], Clone AF6-120.1), conjugated to the S1-handle DNA with P3 docking site (mouse); assay: DNA-PAINT super-resolution microscopy on DNA origami (labeling efficiency); mIgG2a-DNA conjugate (60 nM) hybridised to DNA origami held by neutravidin on a biotin-PEG surface; κLC-Nb-7xR3 added in 0.5x buffer C + 1.5% BSA, >45 min at RT, excess washed off; two rounds of Exchange-PAINT (R3, P3); R3 clusters <19 nm from P3 clusters counted

| Fab labeling density [2] [%] | nanobodies bound per BCR (average) [2] | Substance | Kd [1] [nM] |
| --- | --- | --- | --- |
| – | – | CCGTCCTGAGCC / CACAGTGGACGG / GGCTCACCGATC / GATCGGACTGTG [HJ-1xNIP] | 20 |
| 80 | 1.5 | anti-mouse kappa light chain nanobody (κLC-Nb) with Ser87 replaced by Cys87, conjugated to the DNA-PAINT docking strand 7xR3 (VHH) | – |
